Measured values from the nanobody polyreactivity screen of Harvey et al. (2022).

Assay: yeast display, Sf9 membrane polyspecificity reagent, FACS + sequencing; frameworks hold sequencing errors
Procedure, shortened: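 Galactose-induced (36–48 hours) yeast carrying a synthetic nanobody display library were exposed to 10% biotinylated, detergent-solubilized Sf9 membrane reagent at 4 °C for 1 hour. FACS followed streptavidin microbead enrichment, using low and high (top ~1%) gates for expression (anti-HA) and reagent binding (streptavidin). Colony PCR, MiSeq 2 × 250 sequencing and CDR-length filtering followed. Labels for polyreactivity reflect the gate of origin.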

Sequence	polyreactivity (PSR sort gate)
QVQLVESGGGLVQAGGSLRLSCAASGNTFVKYTMGWYRQAPGKERELVAAITWSGGSTSYADSVKGRFTLSRDNAKNTVYLQMNSLKPEDTAVYYCAAAWSHSRWDTHDYWGQGTQVTVSS	low polyreactivity
QVQLVESGGGLVQAGGSLRLSCAASGNTFWFYGMGWYRQAPGKERELVAAITSGGSTDYADSVKGRFTISRDNAKNTVYLLLNSLKPEDTAVYYCAAEPVAYYGSSYGYWGQGTQVTVSS	low polyreactivity
QVQLVESGGGLVQAGGSLRLSCAASGNTFWGNAMGWYRQAPGKERELVATISASSGSTYYADSVKGRFTISRDNAKNTVYLQMNSLKPEDTAVYYCAKTALRYLKHGRTKGDYWGQGTQVTVSS	low polyreactivity
QVQLVESGGGLVQAGGSLRLSCAASGNTFWQYAMGWYRQAPGKERELVAAITRSTGSTYYADSVKGRFTISRDNAKNTVYLQMNSLKPEDTAVYYCAADFYRHYFRVDSWGQGTQVTVSS	low polyreactivity
QVQLVESGGGLVQAGGSLRLSCAASGNTFWRYTMGWYRQAPGKERELVAAISSSGGSTYYADSVKGRFTISRDNAKNTVYLQMNSLKPEDTAVYYCAAERRLYKIFSYGYWGQGTQVTVSS	high polyreactivity
QVQLVESGGGLVQAGGSLRLSCAASGNTFYANTMGWYRQARNERELVAAITSGTYADSVKGRFTISRDNAKNTVYLQMNSQKPEDTAVYYCAREESLYVTDPGPSKLDYWGQGTQVTVSS	low polyreactivity
QVQLVESGGGLVQAGGSLRLSCAASGNTFYAYAMGWYRQAPGKERELVAAIARGGNTYYADSVKGRFTISRDNAKNTVYLQMNSLKPEDTAVYYCHAYYPIRSSPYGYYYWGQGTQVTVSS	high polyreactivity
QVQLVESGGGLVQAGGSLRLSCAASGNTFYGYAMGWNRQAPGKERELVASITLSGDSTYYADSVKGRFTISRDNEKNTVYLQMNSLKPEDTAVYDCAGVYTYPLGYYHYTYDYWGQGTQVTVSS	low polyreactivity
QVQLVESGGGLVQAGGSLRLSCAASGNTFYPNAMGWYRQAPGKERELVAAITTSGGTTYYADSVKGRFTISRDNAKNTVYLQMNSLKPEDTAVYYCAAYWSRDKYDYWGQGTQVTVSS	low polyreactivity
QVQLVESGGGLVQAGGSLRLSCAASGNTFYRYAMGWYRQAPGKERELVAAISWSGSSTYYADSVKGRFTISRDNAKNTVYLQMNSLKPEDTAVYYCAVYYTRIGPRYDYWGQGTQVTVSS	high polyreactivity
QVQLVESGGGLVQAGGSLRLSCAASGNTFYSYAMGWYRQAPGKERELVAAITWGGRRKFADSVKGRFTSSRDNAKITVYLQMNSLKPEDTAVYYCAARLFHGKTKFDYSGQGTQVTVSS	high polyreactivity
QVQLVESGGGLVQAGGSLRLSCAASGNTFYVYAMGWYRQAPGKERELVADITWSGGSTYYADSVKGRFTISRDNAKNTVYLQMNSLKPEDTAVYYCNADYYYQLWELEYYYWGQGTQVTVSS	high polyreactivity
QVQLVESGGGLVQAGGSLRLSCAASGNTIHWNFMGWYRQATGKERELVATITFSGSSTYYADSVKGRFTISRDNAKNTVYLQMNSLKPEDTAVYYCAKDFLGDGTSIEYGGSEYDYWGQGTQVTVSS	low polyreactivity
QVQLVESGGGLVQAGGSLRLSCAASGNTINVNTMGWYRQAPGKERDLVAAISKRGGSTYYADSVKGRFTISRDNAKNTVYLQMNSLKPEDTAVYYCDKQVSLPRYHYGSAPYGYWGQGTQVTVSS	high polyreactivity
QVQLVESGGGLVQAGGSLRLSCAASGNTLDWYAMGWYRQAPGKERELVAAISSAGSTSYADSVKGRFTISRDNAKNTVYLQMNSLKPEDTAVYYCNVDVYSKDANFQSFASEYDYWGQGTQVTVSS	low polyreactivity
QVQLVESGGGLVQAGGSLRLSCAASGNTLRYYAMGWYRQAPGKERELVAAITRRGGSTYADSVKGRFTISRDNAKNTVYLQMNSLKPEDTAVYYCNRVLYDHSFPYNRGYDYWGQGTQVTVSS	high polyreactivity
QVQLVESGGGLVQAGGSLRLSCAASGNTLYQYAMGWYRQAPGKERELVASITWSGSSTYYADSVKGRFTISRDNAKNTDDLQMNSLKPEDPAVYYCAAVVYYTFDYCGQGTQVTVSS	low polyreactivity
QVQLVESGGGLVQAGGSLRLSCAASGNTVNFYAMGWYREAPGKERELVASITSGGGTNYADSVKGRFTISRDNAKNTVYLQMNSLKPEETAVYFCAAQFYYHFRFHCDWGQGTQVTVSS	low polyreactivity
QVQLVESGGGLVQAGGSLRLSCAASGPIFGFNAMGWYRQAPGKERELVARISSVGSTNYADSVKGRFTISRDNAKNTVYLQMNSLKPEDTAVYYCAAKRYYTQSSYYLALYDYWGQGTQVTVSS	low polyreactivity
QVQLVESGGGLVQAGGSLRLSCAASGPIFSDYTMGWYRQAPGKERELVAVISRRGTSTYYADSVKGRFTISRDNAKNTVDLQMNSLKPEDTAVYYCAADDNTYKFYYWGQGTQVTVSS	high polyreactivity
QVQLVESGGGLVQAGGSLRLSCAASGQIFYTNTMGWYRQAPGKERELVAAINSGDRTYYADSVKGRFTISRDNAKNTVYLQMNSLKPEDTAVYYCAARNYATAVRYDYWGQGTQVTVSS	high polyreactivity
QVQLVESGGGLVQAGGSLRLSCAASGQTFPFYTKGWYRQAPGKERELVGAISRRGGSTYYADSVKGRFTISRDNAKYTVYLQMKSLKPEDTAVYYCAADKYSWYDYWGQGTQVTVSS	low polyreactivity
